# Measurements reported in patent US10772972B2, “Anti-STEAP2 antibody drug conjugates, and compositions and uses thereof” (Regeneron Pharmaceuticals, Inc., priority 2016, dated 2020).
# T1: hSTEAP4 fused to GFP (Homo sapiens, UniProt Q687X5)
# T1 construct: expressed in transfected cells; host or cells: HEK293
# T1 sequence (Q687X5 1-459): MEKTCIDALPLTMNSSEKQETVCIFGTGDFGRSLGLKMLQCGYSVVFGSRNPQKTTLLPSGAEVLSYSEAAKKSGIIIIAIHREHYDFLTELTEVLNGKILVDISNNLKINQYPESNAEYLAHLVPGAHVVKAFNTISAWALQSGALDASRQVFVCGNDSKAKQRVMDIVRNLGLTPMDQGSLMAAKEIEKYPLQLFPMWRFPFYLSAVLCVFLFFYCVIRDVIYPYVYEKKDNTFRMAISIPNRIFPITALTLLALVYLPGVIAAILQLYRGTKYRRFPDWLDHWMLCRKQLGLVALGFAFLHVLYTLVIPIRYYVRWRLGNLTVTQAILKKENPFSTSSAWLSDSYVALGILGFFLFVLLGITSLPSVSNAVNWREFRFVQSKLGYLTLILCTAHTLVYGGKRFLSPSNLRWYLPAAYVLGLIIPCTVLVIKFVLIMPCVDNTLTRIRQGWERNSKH
# T2: hSTEAP2 fused to GFP (Homo sapiens, UniProt Q8NFT2)
# T2 construct: expressed in transfected cells; host or cells: HEK293
# T2 sequence (Q8NFT2 1-490): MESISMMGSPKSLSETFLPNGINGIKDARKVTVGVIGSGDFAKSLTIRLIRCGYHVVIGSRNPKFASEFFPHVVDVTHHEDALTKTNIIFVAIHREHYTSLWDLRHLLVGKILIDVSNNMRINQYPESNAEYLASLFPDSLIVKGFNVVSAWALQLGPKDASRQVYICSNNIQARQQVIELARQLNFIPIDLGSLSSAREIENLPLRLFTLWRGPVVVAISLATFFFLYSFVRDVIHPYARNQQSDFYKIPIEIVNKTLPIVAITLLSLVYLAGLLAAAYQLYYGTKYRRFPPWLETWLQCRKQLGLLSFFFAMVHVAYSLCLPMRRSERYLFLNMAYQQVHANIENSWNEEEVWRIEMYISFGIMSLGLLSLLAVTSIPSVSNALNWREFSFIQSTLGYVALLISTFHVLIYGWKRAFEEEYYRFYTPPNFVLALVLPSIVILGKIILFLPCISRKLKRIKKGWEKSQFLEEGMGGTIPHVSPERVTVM
# T3: hSTEAP3 fused to GFP (Homo sapiens, UniProt Q658P3)
# T3 construct: expressed in transfected cells; host or cells: HEK293
# T3 sequence (Q658P3 1-488): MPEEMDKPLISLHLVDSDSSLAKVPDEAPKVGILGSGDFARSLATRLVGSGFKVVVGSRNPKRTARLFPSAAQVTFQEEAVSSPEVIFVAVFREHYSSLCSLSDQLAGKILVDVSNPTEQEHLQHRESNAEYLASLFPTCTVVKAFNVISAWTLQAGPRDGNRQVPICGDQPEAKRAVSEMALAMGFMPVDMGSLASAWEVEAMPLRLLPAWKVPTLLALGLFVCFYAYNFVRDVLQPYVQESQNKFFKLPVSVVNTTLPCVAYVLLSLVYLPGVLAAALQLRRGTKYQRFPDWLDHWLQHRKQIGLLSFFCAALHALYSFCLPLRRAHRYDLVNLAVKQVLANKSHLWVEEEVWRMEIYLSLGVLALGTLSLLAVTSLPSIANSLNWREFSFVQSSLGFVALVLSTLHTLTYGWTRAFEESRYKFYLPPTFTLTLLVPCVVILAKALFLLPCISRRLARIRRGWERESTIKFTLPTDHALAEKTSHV
# What was measured:
# hSTEAP4 fused to GFP = molecular target: T1, hSTEAP4 fused to GFP; test: Specificity: binding to HEK293 cells transfected with hSTEAP4-GFP; parameters: key: Wells with GFP positive cells that bound anti STEAP2 antibodies were scored as positive (+); those that did not bind anti STEAP2 antibodies were scored as negative (−); settings: transient transfection, 48 h
# Description: (§1) Selected STEAP2 antibodies were then tested for binding to other human (h) STEAP family members (STEAP1, STEAP3, and STEAP4). To assess anti STEAP2 antibody specificity, plasmid constructs expressing hSTEAP1, hSTEAP2, hSTEAP3 or hSTEAP4 fused to Green Fluorescent Protein (GFP) were transiently introduced into HEK293 cells via lipofectamine 2000 based methodology. After 48 h, transiently transfected cells were stained with anti STEAP2 antibodies and imaged as described above for the internalization assay.
# [1] = test system: Raji cells (STEAP2 negative); test: FACS binding to STEAP2-negative Raji cells; settings: human-Fc antibodies
# Description: (§2) The ability of anti-STEAP2 antibodies to selectively bind to human six-transmembrane epithelial antigen of prostate 2 (STEAP2) endogenously expressing cell lines was determined via FACS analysis.
# (§3) Briefly, 1×10^5 cells were incubated with 10 μg/ml of anti STEAP2 antibodies, or isotype control antibodies for 30 min on ice in antibody dilution buffer. Following one wash with antibody dilution buffer, cells were incubated with 10 μg/ml of PE conjugated anti-human or anti mouse Fc secondary antibodies for 30 min on ice. Following one additional wash, samples were incubated with Cytofix (1% formaldehyde) for 20 minutes. After one final wash, samples were filtered through a Pall 96 well filtration block, run on a Hypercyt® cytometer and analyzed in ForeCyt™ (IntelliCyt, Albuquerque, N. Mex.). Mean fluorescence intensities (MFI) were expressed as fold change above unstained levels (background). The average fold above background at antibody concentrations of 100-300 nM were determined. For cell binding EC50 determinations, mAb concentrations ranged from 300 nM to […] and EC50 values were determined from a four-parameter logistic equation over a 12-point response curve (GraphPad Prism).
# [2] = test system: SKBR3 cells (STEAP2 negative); test: FACS binding to STEAP2-negative SKBR3 cells; settings: human-Fc antibodies
# Description: as §2, §3
# hSTEAP1 fused to GFP = molecular target: T4, hSTEAP1 fused to GFP (Homo sapiens, UniProt Q9UHE8); test: Specificity: binding to HEK293 cells transfected with hSTEAP1-GFP; parameters: key: Wells with GFP positive cells that bound anti STEAP2 antibodies were scored as positive (+); those that did not bind anti STEAP2 antibodies were scored as negative (−); settings: transient transfection, 48 h
# T4 construct: expressed in transfected cells; host or cells: HEK293
# T4 sequence (Q9UHE8 whole entry, the tested form may be a part): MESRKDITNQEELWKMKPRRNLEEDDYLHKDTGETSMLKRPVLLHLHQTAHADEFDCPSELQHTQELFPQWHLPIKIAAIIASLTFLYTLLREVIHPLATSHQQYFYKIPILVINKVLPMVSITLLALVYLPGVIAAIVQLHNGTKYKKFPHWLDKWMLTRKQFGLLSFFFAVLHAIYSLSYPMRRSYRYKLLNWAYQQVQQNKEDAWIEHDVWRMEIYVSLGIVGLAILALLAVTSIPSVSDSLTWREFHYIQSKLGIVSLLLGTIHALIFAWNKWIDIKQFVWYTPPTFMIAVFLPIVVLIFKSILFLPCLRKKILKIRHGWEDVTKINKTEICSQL
# Description: as §1
# [3] = test system: FADU cells (STEAP2 negative); test: FACS binding to STEAP2-negative FADU cells; settings: human-Fc antibodies
# Description: as §2, §3
# hSTEAP2 fused to GFP = molecular target: T2, hSTEAP2 fused to GFP; test: Specificity: binding to HEK293 cells transfected with hSTEAP2-GFP; parameters: key: Wells with GFP positive cells that bound anti STEAP2 antibodies were scored as positive (+); those that did not bind anti STEAP2 antibodies were scored as negative (−); settings: transient transfection, 48 h
# Description: as §1
# [4] = test system: C4-2 cells (high-STEAP2 expressing); test: Internalization and total binding on C4-2 cells (imaging, qualitative score); type: cell-based, human; parameters: key: − (no internalization or binding); +(weak internalization or binding); ++(moderate internalization or binding); +++(robust internalization or binding); settings: 10 μg/ml antibody
# Description: Briefly, 20,000 C4-2 cells were seeded in PDL coated 96 well plates. The next day, cells were incubated with anti-human STEAP2 antibodies (10 μg/ml) for 30 min on ice followed by two PBS washes. Cells were then incubated with alexa488-conjugated anti-hFc Fab secondary antibody for 30 minutes on ice, followed by two additional PBS washes. Antibodies were allowed to internalize for 1 h at 37° C. in internalization buffer (PBS+2% FBS) or were maintained at 4° C. Cells were fixed in 4% formaldehyde, nuclei were stained with DRAQ5 (Cell signaling), and images were acquired on the ImageXpress micro XL (Molecular Devices).
# A qualitative visual assessment of the total binding intensity and the intensity of antibodies that had internalized into vesicles was performed and scored according to the following criteria: − (no internalization or binding), +(weak internalization or binding), ++(moderate internalization or binding) and +++(robust internalization or binding).
# hSTEAP3 fused to GFP = molecular target: T3, hSTEAP3 fused to GFP; test: Specificity: binding to HEK293 cells transfected with hSTEAP3-GFP; parameters: key: Wells with GFP positive cells that bound anti STEAP2 antibodies were scored as positive (+); those that did not bind anti STEAP2 antibodies were scored as negative (−); settings: transient transfection, 48 h
# Description: as §1
Molecule,Binding to hSTEAP4-GFP transfected HEK293 cells (hSTEAP4 fused to GFP),Binding to hSTEAP1-GFP transfected HEK293 cells (hSTEAP1 fused to GFP),Binding to hSTEAP2-GFP transfected HEK293 cells (hSTEAP2 fused to GFP),Binding to hSTEAP3-GFP transfected HEK293 cells (hSTEAP3 fused to GFP),Raji Avg F.A.B (Fold Above Background) [1] [fold],SKBR3 Avg F.A.B (Fold Above Background) [2] [fold],FADU Avg F.A.B (Fold Above Background) [3] [fold],"Internalization (37° C., 1 h) Qualitative Score [4]",Total Binding (4° C.) Qualitative Score [4]
"H1H7972P: anti-STEAP2 antibody, HCVR/LCVR SEQ ID NOs 186/194 (antibody, V domains shown) VH: QVQLQQSGPGLVKPSQTLSLTCAISGDSVSSNSAAWNWIRQSPSRGLEWLGRTYYRSKWYNDYVVSVKSRIIFNPDTSKNQFSLQLNSVTPEDTAVYYCARVRQDYRSGPFDYWGQGTLVTVSS VL: EIVMTQSPVTLSVSPGERATLSCWASQSVSSSLAWYQQKPGQAPRLLIYGASTRATGIPARFSGSGSGTGFTLTISSLQSEDFAVYYCQQYNNWPFTFGPGTKVDIK",−,−,+,−,59,3,2,+,+
"H1M7814N: anti-STEAP2 antibody, mouse IgG1 Fc, HCVR/LCVR SEQ ID NOs 218/226 (antibody, V domains shown, mouse IgG1 Fc) VH: QVQLVESGGGVVQPGRSLRLSCVASGFTISSYGMNWVRQAPGKGLEWVAVISYDGGNKYSVDSVKGRFTISRDNSKNTLYLQMNSLRAEDSAVYYCARGRYFDLWGRGTLVTVSS VL: DIQMTQSPSTLSASVGDRVTITCRASQSISSWLAWYQQKPGRAPNLLISKASSLKSGVPSRFSGSGSGTEFTLTVSSLQPDDFATYYCQQYYSYSYTFGQGTKLEIK",−,−,+,−,,,,,
"H1H7809N: human-Fc anti-STEAP2 antibody, HCVR SEQ ID NO: 330 (antibody, V domains shown) VH: QVQLVESGGGVVQPGRSLGLSCAASGFTFSSYGMHWVRQAPGKGLEWVAVIWYDGSNKYYVDSVKGRFTISRDNSKNTLYLQMNSLRAEDTAVYYCAREGLRFLENYYYYYGMDVWGQGTTVTVSS VL: EIVLTQSPGTLSLSPGERATLSCRASQSISSTYLAWYQQRPGQAPRLLIYGASSRATGIPDRFSGSGSGTDFTLTISRLEPEDFAVYYCQQYGTSPYTFGQGTKLEIK",,,,,3,37,21,,
"H1H11162N: human-Fc anti-STEAP2 antibody, HCVR/LCVR SEQ ID NOs 250/258 (antibody, V domains shown, human Fc) VH: QVQLQQSGPGLVKPSQTLSLTCAISGDSVSSNRAAWNWIRQSPSRGLQWLGRTYYRSKWYNDYAVSLRSRITINPVTSKNQVALHMNSVTPEDTAVYYCARAGIVVVPGPETFYYYDHGLDVWGQGTTVTVSS VL: DIQMTQSPSSLSASVGDRVTITCRASQSIRSYLNWYQQKPGKAPELLIHAASSLQSGVPSRFSGSGSGTDFTLTISSLQPEDFASYYCQQSYSAPPITFGQGTRLEIK",,,,,2,3,3,+++,+++

# Continued, in another order:
Binding to hSTEAP4-GFP transfected HEK293 cells (hSTEAP4 fused to GFP),Binding to hSTEAP1-GFP transfected HEK293 cells (hSTEAP1 fused to GFP),Binding to hSTEAP2-GFP transfected HEK293 cells (hSTEAP2 fused to GFP),Binding to hSTEAP3-GFP transfected HEK293 cells (hSTEAP3 fused to GFP),Molecule,Raji Avg F.A.B (Fold Above Background) [1] [fold],SKBR3 Avg F.A.B (Fold Above Background) [2] [fold],FADU Avg F.A.B (Fold Above Background) [3] [fold],"Internalization (37° C., 1 h) Qualitative Score [4]",Total Binding (4° C.) Qualitative Score [4]
−,−,+,−,"H2M7810N: anti-STEAP2 antibody, HCVR/LCVR SEQ ID NOs 346/354 (antibody, V domains shown) VH: QVQLVESGGGVVQPGRSLRLSCAVSGFTSSTYGMNWVRQAPGKGLEWVAVISYDGSNKYYADSVKGRFTISRDNSKNTLYLQMNSLRPEDTAVYYCARGRYFDLWGRGTLVTVSS VL: DIQMTQSPSTLSASVGDRVTITCRASQIISSWLAWYQQKPGKAPKLLIYKASSLASGVPSRFSGSGSGTEFTLTISSLQPDDFATYYCQQYKSYSYTFGQGTKLEIK",,,,,
−,−,+,−,"H2M7807N: anti-STEAP2 antibody, HCVR/LCVR SEQ ID NOs 314/322 (antibody, V domains shown) VH: QVQLVESGGGVVQPGRSLRLSCAVSGFTSSTYGMNWVRQAPGKGLEWVAVISYDGSNKYYADSVKGRFTISRDNSKNTLYLQMNSLRPEDTAVYYCARGRYFDLWGRGTLVTVSS VL: DIQMTQSPSTLSASVGDRVTITCRASQIISSWLAWYQQKPGKAPKLLIYKASSLASGVPSRFSGSGSGTEFTLTISSLQPDDFATYYCQQYKSYSYTFGQGTNLEIK",,,,,
−,−,+,−,"H2M7811N: anti-STEAP2 antibody, HCVR/LCVR SEQ ID NOs 362/370 (antibody, V domains shown) VH: QVQLVESGGGVVQPGRSLRLSCAVSGFTSSTYGMNWVRQAPGKGLEWVAVISFDGSNKYYADSVKGRFTISRDNSKNTLYLQMSSLRPEDTAVYYCARGRYFDLWGRGTLVTVSS VL: DTQMTQSPSTLSASVGDRVTITCRASQIISSWLAWYQQKPGKAPKLLIYKASSLASGVPSRFSGSGSGTEFTLTISSLQPDDFATYYCQQYKSYSYTFGQGTNLEIK",,,,,
